Columns and labels:
[1] = molecular target: truncated E2 protein of CSFV C-strain with glutathione S-transferase tag (grE2) (classical swine fever virus, C-strain); test: SPR
[2] = molecular target: truncated E2 protein of CSFV C-strain with glutathione S-transferase tag (grE2) (classical swine fever virus, C-strain); test: ELISA

B1: recombinant sdAbE2-1 (VHH)
VHH: QVQLLESGGGLVQPGGSLRLSCAASGYSFIDKTMAWVRQAPGKGLEWVSAIRMHNGSTYYADSVKGRFTISRDNSKNTLYLQMNSLRAEDTAVYYCARLSRRIQAKDKAKLKYWGQGTLVTVSS
Kd [1]: 334 nM | koff [1]: 0.00791 s⁻¹ | kon [1]: 23700 M⁻¹ s⁻¹ | OD450nm value [2]: 0.765

B2: recombinant sdAbE2-2 (VHH)
VHH: DVQLVESGGGLVQAGGSLRLSCTASGFTFDDYAMAWFRQPPGKEREGVSCISSSGGSTWYADSVKGRFTVSRDNAKNTLYLQMNSLKPEDTAMYYCAADWGRLCVVRGPRNEYKYSGQGTQVTVSS
Kd [1]: 13.5 nM | koff [1]: 0.00859 s⁻¹ | kon [1]: 635000 M⁻¹ s⁻¹ | OD450nm value [2]: 0.743
